Patent US20220033505A1 (Janssen / Centocor, published 2022)

Target: HLA-G on NCI-H2009-b2m target cells (human, UniProt P17693 25-338)
Assay: cell-based or functional assay

Binder	Cytotoxicity, EC50 (M); T cell-mediated cytotoxicity against NCI-H2009-b2m cells, 72 hr, E:T 3:1
HC3B238 (CD3W246-HL-scFv-Fc x MHGB738-Fab-Fc) (bispecific antibody, human IgG1, kappa, L234A L235A) scFv: EVQLVESGGGLVKPGGSLRLSCAASGFTFSRYNMNWVRQAPGKGLEWVSSISTSSNYIYYADSVKGRFTFSRDNAKNSLDLQMSGLRAEDTAIYYCTRGWGPFDYWGQGTLVTVSSGGSEGKSSGSGSESKSTGGSDIQMTQSPSSLSASVGDRVTITCRARQSIGTAIHWYQQKPGKAPKLLIKYASESISGVPSRFSGSGSGTDFTLTISSVQPEDFATYYCQQSGSWPYTFGQGTKLEIKEPKSSDKTHTCPPCPAPEAAGGPSVFLFPPKPKDTLMISRTPEVTCVVVSVSHEDPEVKFNWYVDGVEVHNAKTKPREEQYNSTYRVVSVLTVLHQDWLNGKEYKCKVSNKALPAPIEKTISKAKGQPREPQVYVYPPSREEMTKNQVSLTCLVKGFYPSDIAVEWESNGQPENNYKTTPPVLDSDGSFALVSKLTVDKSRWQQGNVFSCSVMHEALHNHYTQKSLSLSPG heavy: QVQLQQSGPGLVKPSQTLSLTCAISGDSVSSNRAAWNWIRQSPSRGLEWLGRTYYRSKWYNDYAVSVKSRITINPDTSKNQISLQLNSVTPEDTAVYYCARVRPGIPFDYWGQGTPVTVSSASTKGPSVFPLAPSSKSTSGGTAALGCLVKDYFPEPVTVSWNSGALTSGVHTFPAVLQSSGLYSLSSVVTVPSSSLGTQTYICNVNHKPSNTKVDKKVEPKSCDKTHTCPPCPAPEAAGGPSVFLFPPKPKDTLMISRTPEVTCVVVSVSHEDPEVKFNWYVDGVEVHNAKTKPREEQYNSTYRVVSVLTVLHQDWLNGKEYKCKVSNKALPAPIEKTISKAKGQPREPQVYVLPPSREEMTKNQVSLLCLVKGFYPSDIAVEWESNGQPENNYLTWPPVLDSDGSFFLYSKLTVDKSRWQQGNVFSCSVMHEALHNHYTQKSLSLSPG light: not shown	1.73e-11 M
HC3B237 (CD3W246-LH-scFv-Fc x MHGB738-Fab-Fc) (bispecific antibody, human IgG1, kappa, L234A L235A) scFv: DIQMTQSPSSLSASVGDRVTITCRARQSIGTAIHWYQQKPGKAPKLLIKYASESISGVPSRFSGSGSGTDFTLTISSVQPEDFATYYCQQSGSWPYTFGQGTKLEIKGGSEGKSSGSGSESKSTGGSEVQLVESGGGLVKPGGSLRLSCAASGFTFSRYNMNWVRQAPGKGLEWVSSISTSSNYIYYADSVKGRFTFSRDNAKNSLDLQMSGLRAEDTAIYYCTRGWGPFDYWGQGTLVTVSSEPKSSDKTHTCPPCPAPEAAGGPSVFLFPPKPKDTLMISRTPEVTCVVVSVSHEDPEVKFNWYVDGVEVHNAKTKPREEQYNSTYRVVSVLTVLHQDWLNGKEYKCKVSNKALPAPIEKTISKAKGQPREPQVYVYPPSREEMTKNQVSLTCLVKGFYPSDIAVEWESNGQPENNYKTTPPVLDSDGSFALVSKLTVDKSRWQQGNVFSCSVMHEALHNHYTQKSLSLSPGK heavy: QVQLQQSGPGLVKPSQTLSLTCAISGDSVSSNRAAWNWIRQSPSRGLEWLGRTYYRSKWYNDYAVSVKSRITINPDTSKNQISLQLNSVTPEDTAVYYCARVRPGIPFDYWGQGTPVTVSSASTKGPSVFPLAPSSKSTSGGTAALGCLVKDYFPEPVTVSWNSGALTSGVHTFPAVLQSSGLYSLSSVVTVPSSSLGTQTYICNVNHKPSNTKVDKKVEPKSCDKTHTCPPCPAPEAAGGPSVFLFPPKPKDTLMISRTPEVTCVVVSVSHEDPEVKFNWYVDGVEVHNAKTKPREEQYNSTYRVVSVLTVLHQDWLNGKEYKCKVSNKALPAPIEKTISKAKGQPREPQVYVLPPSREEMTKNQVSLLCLVKGFYPSDIAVEWESNGQPENNYLTWPPVLDSDGSFFLYSKLTVDKSRWQQGNVFSCSVMHEALHNHYTQKSLSLSPG light: not shown	1.33e-10 M
